According to patent US9828589B2, “Acyltransferases and uses thereof in fatty acid production” (priority 2009, dated 2017):
“Also recorded” adds a separate entry of the source.

Tests used:
[1] = system: [14C]-18:1-LPA and acyl-CoA; experiment: Determination of substrate specificity for LPAAT (yeast microsomal fraction); assay type: biochemical, Saccharomyces cerevisea; conditions: comparing FIG. 5 (10 mg/ml BSA) and FIG. 6 (0 mg/ml BSA)
Method: (§1) The specific activity of the enzyme LPAAT_13842 (Pi) using the substrates indicated at the x-axis is gives as the amount (in nmol) of substrate/product consumed/produced in one minute per mg total protein and was determined as described in example 5. The specific activities measured for microsomal extracts of yeast harboring an empty vector (pYES2.1 ev) is shown as control.
as §1, with “enzymes BnLPAAT2 and AtLPAAT2-At3g57650” for “enzyme LPAAT_13842 (Pi)”, “(pYES2” for “(pYES2.1”

[2] = system: yeast mutant lacking LPAAT activity (knockout of the gene YDL052c); experiment: LPAAT activity assay using yeast extracts (complementation, formation of phosphatidic acid); conditions: complements knockout strain; TLC, FIG. 1
Method: Microsomal isolations of these transformants and the wildtype yeast strain BY4742 (lane marked “+”) where incubated with ^14C-labeled oleic acid and lysophosphatidic acid (LPA). Thin layer chromatography was performed to separate lipid classes.
The next day, expression of the acyltransferase polypeptides can be induced by transferring the cells to fresh media containing 2% galactose, for example by inoculating 100 ml of fresh culture to an optical density (measure at 600 nm) of OD600=0.1. Cells are harvested after 24 h incubation at 28° C. by centrifugation at 3000×g for 5 min and resuspended in 1 ml resuspention buffer (25 mM Tris/HCL pH 7.6) and disrupted using acid washed zirconium bead (200 μm average diameter) in a mill (Resch, Germany) by three minutes agitation at 300 rpm. The supernatant is transferred to a fresh tube and centrifuged at 3000×g for 5 min. The obtained supernatant is the crude extract. Protein content is measured according to Bradford (Bradford, M. M. (1976), Anal. Biochem. Bd. 72, pp. 248-254) with bovine serum albumin as standard. Assay mixtures contain 50 μg of protein, 10 μl of 10 mM [^14C]-glycerole-3-phosphate (2000 dpm/nmol), 10 μl of 1 mM 18:1-CoA in assay buffer (25 mM Tris/HCL pH 7.6, 0.5 mg/ml BSA) to give a total volume of 100 μl. Samples are incubated for 10 min at 30° C. The assays are terminated by extraction of the lipids into chloroform according to Blight and Dyer (Bligh, E. G. and Dyer, W. J. (1959), Can. J. Biochem. Physiol. 37, pp. 911-917). Lipids are separated on thin layer chromatography (TLC) silica 60 plates (Merck) using chloroform/methanol/acetic acid/water (90:15:10:3), and autoradiographic pictures are taken using an instant imager (Packard).

[3] = system: [14C]-18:1-Lysophosphatidlycholine (-LPC) and acyl-CoA; experiment: Determination of substrate specificity for LPLAT, lysophosphatidylcholine as acyl-acceptor (LPCAT assay); assay type: biochemical, Saccharomyces cerevisea; conditions: comparing FIG. 7 (10 mg/ml BSA) and FIG. 9 (0 mg/ml BSA)
Method: as §1, with “enzymes LPLAT_18374 (Pi) and LPCAT_02075” for “enzyme LPAAT_13842”, “6.” for “5.”, “(pYES2” for “(pYES2.1”
as §1, with “enzymes AtLPCAT1-At1g12640, AtLPCAT2-At1g63050, BnLPCAT1 and BnLPCAT2” for “enzyme LPAAT_13842 (Pi)”, “6.” for “5.”, “(pYES2” for “(pYES2.1”

Molecule	selectivity towards the length and the desaturation state of the substrate fatty acid [1]	LPAAT activity (formation of phosphatidic acid, PA) [2]	selectivity towards the length and the desaturation state of the substrate fatty acid [3]
LPAAT_13842 (Pi): acyltransferase from Phythophtora infestance, 424 amino acids, SEQ-ID 12, encoded by SEQ-ID 11 (protein, Phythophtora infestance) MSFATPAQVLQDVRFEERFAEIESRLPATLALAKEGSLAKRNQTKRKLYHDSELIRIELEERLNELGIESQWVTAPEMKEANEKLDAVRKQLKLDVLPASSSPLEKIYMVVRMLTMVLVLVGWLSCVTVLIPLKWLNPVLKKMGVKKNYLPMDIVSWGTAFMVCVTACTDMKAEGVENLLNLKDSVVCMFSHSSNLDGFIVNGSSPIAFKFAAKKSIFLVPFLGWSSRWGFDFVAIDRSHRKSALKSLKELAVSVNEHGNSVCISPEGTRSKDGLLQEFKKGPFYLREDTKKNVVPSIVFGAYELWPPGRLFSIPGHTLVRYLPEYKSDPNLNRNQNRLALRRIYLKAFTEDVPDYIGTRVSTNFILKNMFYHYLAWAITFKVTSWALTVISLVLYWLNITYGTFMLFSLVMMVAGEALMFFTC	not as selective as AtLPAAT2 and BnLPAAT2	having LPAAT activity; also recorded: have LPAAT activity	
LPLAT_18374 (Pi): acyltransferase from Phythophtora infestance, 558 amino acids, SEQ-ID 8, encoded by SEQ-ID 7 (protein, Phythophtora infestance) MSTTALLQASTSPPPSREPEYAALEQLEPPLSHAIDMGVKVSPSESAAIAGGVYVTASSSCGASTIKHNPFTYTTPVDTYEKAKMTILCLLGVPFIRFVLLLCVGILLVIVSHLALIGYKPLDAHSGARPPLPRWRRIVGSPVPYLLRSLMLIVGYYWVPVKYPPNFNRHAMPRVIVSNHLTFFDGLYIFTLLSPSIAMKTDVANLPLISRIVQMIQPILIDRGTPEGRRRAMNDITSHVADPSKPPLLVFPEGTTSNQTVLCKFKVGSFVSGVPCQPVVLRYPYKHFDLSWPPGVSGLYLALRVLCQVYNRLEVEILPAYYPSERERKDPQLYAINVREVMAKALGVPTTNHAFEDVAMLMRVGDYATKHVVPLTDVGEVISLTALKRGDVDRLVGYFRRHDLDKDGHLSMQELRALFPNDDPVIVDQLFDLVDLDDSGLIDFRELCLALRALNPQNINEGDDALAKFAFRLYDLDNNGVIDASELEQLLRFQRNFYGVSEASVAAALRQAQAENTTGITYNRFEQLVLQNPEVLWYVRDKLEVLRGSMRESSLEIP		having LPAAT activity; also recorded: have LPAAT activity	not as selective as AtLPAAT1 or AtLPCAT2 or BnLPCAT1 or BnLPCAT2
